These results are taken from IntAct's records for PubMed 20150893.

B1: Class E vacuolar protein-sorting machinery protein HSE1 (Saccharomyces cerevisiae), P38753 (parent)
chain: MSSSAIKIRNALLKATDPKLRSDNWQYILDVCDLVKEDPEDNGQEVMSLIEKRLEQQDANVILRTLSLTVSLAENCGSRLRQEISSKNFTSLLYALIESHSVHITLKKAVTDVVKQLSDSFKDDPSLRAMGDLYDKIKRKAPYLVQPNVPEKHNMSTQADNSDDEELQKALKMSLFEYEKQKKLQEQEKESAEVLPQQQQQHQQQNQAPAHKIPAQTVVRRVRALYDLTTNEPDELSFRKGDVITVLEQVYRDWWKGALRGNMGIFPLNYVTPIVEPSKEEIEKEKNKEAIVFSQKTTIDQLHNSLNAASKTGNSNEVLQDPHIGDMYGSVTPLRPQVTRMLGKYAKEKEDMLSLRQVLANAERSYNQLMDRAANAHISPPVPGPALYAGMTHANNTPVMPPQRQSYQSNEYSPYPSNLPIQHPTNSANNTPQYGYDLGYSVVSQPPPGYEQ
B2: Signal transducing adapter molecule 1 (Homo sapiens), Q92783 (parent)
chain: MPLFATNPFDQDVEKATSEMNTAEDWGLILDICDKVGQSRTGPKDCLRSIMRRVNHKDPHVAMQALTLLGACVSNCGKIFHLEVCSRDFASEVSNVLNKGHPKVCEKLKALMVEWTDEFKNDPQLSLISAMIKNLKEQGVTFPAIGSQAAEQAKASPALVAKDPGTVANKKEEEDLAKAIELSLKEQRQQSTTLSTLYPSTSSLLTNHQHEGRKVRAIYDFEAAEDNELTFKAGEIITVLDDSDPNWWKGETHQGIGLFPSNFVTADLTAEPEMIKTEKKTVQFSDDVQVETIEPEPEPAFIDEDKMDQLLQMLQSTDPSDDQPDLPELLHLEAMCHQMGPLIDEKLEDIDRKHSELSELNVKVMEALSLYTKLMNEDPMYSMYAKLQNQPYYMQSSGVSGSQVYAGPPPSGAYLVAGNAQMSHLQSYSLPPEQLSSLSQAVVPPSANPALPSQQTQAAYPNTMVSSVQGNTYPSQAPVYSPPPAATAAAATADVTLYQNAGPNMPQVPNYNLTSSTLPQPGGSQQPPQPQQPYSQKALL
B3: Vacuolar protein sorting-associated protein 27 (Saccharomyces cerevisiae), P40343 (parent)
chain: MSVSTPSELDALIEQATSESIPNGDLDLPIALEISDVLRSRRVNPKDSMRCIKKRILNTADNPNTQLSSWKLTNICVKNGGTPFIKEICSREFMDTMEHVILREDSNEELSELVKTILYELYVAFKNDSQLNYVAKVYDKLISRGIKFPEKLTLSNSPTAMFDSKTPADWIDSDACMICSKKFSLLNRKHHCRSCGGVFCQEHSSNSIPLPDLGIYEPVRVCDSCFEDYDLKRHDDSKKSKKHRHKRKKDRDYSTPEDEEELIRKAIELSLKESRNSASSEPIVPVVESKNEVKRQEIEEEEDPDLKAAIQESLREAEEAKLRSERQKASRQMQPQQPSPQPQPIHSVDLSDEEKDSIYMFASLVEKMKSRPLNEILEDSKLQNLAQRVFASKARLNYALNDKAQKYNTLIEMNGKISEIMNIYDRLLEQQLQSINLSQQYTLPQVPSDPYNYLTENVQNPAESYQTPPLQQLSSHQYKPQQDVSRQQSVKANSSPTTNIDHLKTIDVTPHAQQKPQSHVELAPSDPPYPKEEAEDEGTQAVQDEESSTQESRERPYPVETENGETSINKRPQGITRYDFPTVPARKFVQPESTVPLPASSSEIPIKEERPPSPQEELLIEL

In the first experiment the parent is B1. Conditions: with ubb_bovin UBB.
With S174D, the “effect of a mutation on the interaction” value is “disrupting interaction”. Take A170Q: the “effect of a mutation on the interaction” value is on record as “disrupting interaction”.

Variants of B2 are the subject of a further experiment. Conditions: with ubb_bovin UBB.
Take W26A: the “effect of a mutation on the interaction” value is recorded as “disrupting interaction”.

In the next experiment the parent is B2. Particulars: with ubb_bovin UBB. The source holds these as a separate data set.
As to L30D, the “effect of a mutation on the interaction” value is “disrupting interaction”.

The next experiment covers variants of B2. Particulars: with ubb_bovin UBB. This is another data set of the same source.
On to G27E, for which the “effect of a mutation on the interaction” value is reported as “decreasing interaction”.

The variants in a further experiment derive from B2. Conditions: with ubb_bovin UBB. This is another data set of the same source.
Regarding D31Q, the “effect of a mutation on the interaction” value is recorded as “increasing interaction”.

Variants of B3 are the subject of another experiment. Conditions: with ubb_bovin UBB.
In the case of S270D, the “effect of a mutation on the interaction” value is “disrupting interaction”. As for A266Q, the “effect of a mutation on the interaction” value is recorded as “disrupting interaction”.
